Measured values from PMC5416816.
Read-outs that look alike come from different tables or passages of the source.

Assays:
TIA-1 RRM23K [1] = target: T1, TIA-1 RRM23K (UniProt P31483-2 93-274); assay: fluorescence anisotropy
T1 sequence: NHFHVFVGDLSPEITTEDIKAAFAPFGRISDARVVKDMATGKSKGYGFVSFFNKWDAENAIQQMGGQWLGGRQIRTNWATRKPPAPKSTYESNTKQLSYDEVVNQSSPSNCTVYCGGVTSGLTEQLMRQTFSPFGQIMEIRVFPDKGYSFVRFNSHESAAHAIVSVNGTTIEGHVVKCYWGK

TIA-1 RRM23K [2] = target: T1, TIA-1 RRM23K; assay: ITC
TIA-1 RRM23L [3] = target: T2, TIA-1 RRM23L (UniProt P31483-2 80-292); assay: NMR
T2 sequence: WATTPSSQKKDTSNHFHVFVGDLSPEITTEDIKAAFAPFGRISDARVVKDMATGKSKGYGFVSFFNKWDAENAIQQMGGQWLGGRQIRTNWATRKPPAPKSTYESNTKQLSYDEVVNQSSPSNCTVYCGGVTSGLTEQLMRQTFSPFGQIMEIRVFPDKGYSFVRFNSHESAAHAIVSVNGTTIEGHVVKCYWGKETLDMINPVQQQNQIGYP

TIA-1 RRM23L [4] = target: T2, TIA-1 RRM23L; assay: fluorescence anisotropy
TIA-1 RRM23S = target: T3, TIA-1 RRM23S (UniProt P31483-2 94-272); assay: fluorescence anisotropy
T3 sequence: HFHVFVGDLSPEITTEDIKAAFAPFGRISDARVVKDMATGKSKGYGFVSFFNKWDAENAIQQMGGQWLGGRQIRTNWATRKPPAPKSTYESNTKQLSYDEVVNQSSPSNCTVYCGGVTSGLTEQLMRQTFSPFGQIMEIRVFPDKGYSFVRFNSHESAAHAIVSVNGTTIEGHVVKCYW

TIA-1 RRM2L = target: T4, TIA-1 RRM2L (UniProt P31483-2 80-188); assay: fluorescence anisotropy
T4 sequence: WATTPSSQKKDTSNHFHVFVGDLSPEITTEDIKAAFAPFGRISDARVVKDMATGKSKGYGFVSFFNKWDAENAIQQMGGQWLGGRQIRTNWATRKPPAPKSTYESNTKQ

TIA-1 RRM2S = target: T5, TIA-1 RRM2S (UniProt P31483-2 95-184); assay: NMR
T5 sequence: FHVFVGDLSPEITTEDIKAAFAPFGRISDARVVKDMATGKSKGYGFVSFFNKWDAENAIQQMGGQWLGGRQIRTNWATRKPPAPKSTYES

TIA-1 RRM23L [5] = target: T2, TIA-1 RRM23L; assay: NMR; remark: listed apart in the source

## ACTCCTTTTT (ssDNA) [CT-rich DNA]
TIA-1 RRM23K [1]
  Kd: 30 ± 3 nM

## TTTTTACTCC (ssDNA) [TC-rich DNA]
TIA-1 RRM23K [1]
  Kd: 8 ± 1 nM

## ACUCCUUUUU (ssRNA) [CU-rich RNA (unlabeled)]
TIA-1 RRM23K [2]
  Kd: 70 ± 3 nM

## UUUUUACUCC (ssRNA) [UC-rich RNA]
TIA-1 RRM23K [1]
  Kd: 5 ± 0.3 nM

## UUUUUACUCC (ssRNA) [UC-rich RNA (unlabeled)]
TIA-1 RRM23K [2]
  Kd: 12 ± 2 nM

## TTTTTACTCC (ssDNA, 5' thiol C6 coupled to PROXYL) [PROXYL TC-rich DNA]
TIA-1 RRM23L [3]
  binding result: binds

## ACUCCUUUUU (ssRNA) [CU-rich RNA]
TIA-1 RRM23L [4]
  Kd: 130 ± 7 nM
TIA-1 RRM23K [1]
  Kd: 130 ± 10 nM
TIA-1 RRM23S
  Kd: 6600 ± 700 nM
TIA-1 RRM2L
  Kd: 9100 ± 2000 nM

## TTTTT (ssDNA) [TTTTT DNA]
TIA-1 RRM2S
  binding result: binds

## TTTTTACTCC (ssDNA, 5' thiol C6 S-S) [5'thiol TC-rich DNA]
TIA-1 RRM23L [5]
  binding result: binds
